Patent US20100260668A1 (published 2010)

What follows are binders tested against T1, DLL4 ECD/His tag (R&D 1506-D4-050) (UniProt Q9NR61 27-529) (assay: direct bind ELISA, DLL4 on plate; DLL4 VD N-term.; HC Short, LC Long).
T1 construct: extracellular domain; Bought antigen coated on the ELISA plate; not shown: His tag

Binder	EC50 [nM]
DVD533 (bispecific antibody, human IgG1, kappa, lambda, L234A L235A, DVD-Ig; outer AB073 (DLL4), inner AB071 (VEGF); HC short, LC long linker; also called DVD533H; DVD533L) heavy: not shown light: QAVVTQESALTTSPGETVTLTCRSSTGAVTTSNYANWVQEKPDHLFTGLIGGTNNRAPGVPARFSGSLIGDKAALTITGAQTEDEAIYFCALWYSNHWVFGGGTKLTVLGQPKAAPSVTLFPPDIQMTQSPSSLSASVGDRVTITCRASQVIRRSLAWYQQKPGKAPKLLIYAASNLASGVPSRFSGSGSGTDFTLTISSLQPEDFATYYCQQSNTSPLTFGQGTKVEIKRTVAAPSVFIFPPSDEQLKSGTASVVCLLNNFYPREAKVQWKVDNALQSGNSQESVTEQDSKDSTYSLSSTLTLSKADYEKHKVYACEVTHQGLSSPVTKSFNRGEC	0.25
DVD463 (bispecific antibody, human IgG1, kappa, DVD-Ig; outer AB069 (DLL4), inner AB071 (VEGF); HC short, LC long linker; also called DVD463H; DVD463L) heavy: not shown light: DIVMTQSPDSLAVSLGERATISCRASESVDNYGISFMKWFQQKPGQPPKLLIYAASNQGSGVPDRFSGSGSGTDFTLTISSLQAEDVAVYYCQQSKEVPWTFGGGTKVEIKRTVAAPSVFIFPPDIQMTQSPSSLSASVGDRVTITCRASQVIRRSLAWYQQKPGKAPKLLIYAASNLASGVPSRFSGSGSGTDFTLTISSLQPEDFATYYCQQSNTSPLTFGQGTKVEIKRTVAAPSVFIFPPSDEQLKSGTASVVCLLNNFYPREAKVQWKVDNALQSGNSQESVTEQDSKDSTYSLSSTLTLSKADYEKHKVYACEVTHQGLSSPVTKSFNRGEC	0.5
DVD485 (bispecific antibody, human IgG1, kappa, DVD-Ig; outer AB015 (DLL4), inner AB071 (VEGF); HC short, LC long linker; also called DVD485H; DVD485L) heavy: not shown light: DIQMTQSPSSLSASVGDRVTITCRASQDVSTAVAWYQQKPGKAPKLLIYSASFLYSGVPSRFSGSGSGTDFTLTISSLQPEDFATTYYCQQSYTGTVTFGQGTKVEIKRTVAAPSVFIFPPDIQMTQSPSSLSASVGDRVTITCRASQVIRRSLAWYQQKPGKAPKLLIYAASNLASGVPSRFSGSGSGTDFTLTISSLQPEDFATYYCQQSNTSPLTFGQGTKVEIKRTVAAPSVFIFPPSDEQLKSGTASVVCLLNNFYPREAKVQWKVDNALQSGNSQESVTEQDSKDSTYSLSSTLTLSKADYEKHKVYACEVTHQGLSSPVTKSFNRGEC	1.41
DVD509 (bispecific antibody, human IgG1, kappa, DVD-Ig; outer AB072 (DLL4), inner AB071 (VEGF); HC short, LC long linker; also called DVD509H; DVD509L) heavy: not shown light: DIQMTQSSSYLSVSLGGRVTITCKASDHINNWLAWYQQKPGNAPRLLISGATSLETGVPSRFSGSGSGKDYTLSITSLQTEDVATYYCQQYWSIPLTFGAGTKLELKRTVAAPSVFIFPPDIQMTQSPSSLSASVGDRVTITCRASQVIRRSLAWYQQKPGKAPKLLIYAASNLASGVPSRFSGSGSGTDFTLTISSLQPEDFATYYCQQSNTSPLTFGQGTKVEIKRTVAAPSVFIFPPSDEQLKSGTASVVCLLNNFYPREAKVQWKVDNALQSGNSQESVTEQDSKDSTYSLSSTLTLSKADYEKHKVYACEVTHQGLSSPVTKSFNRGEC	0.21

These binders were tested against T2, DLL4 (DLL4 ECD/His tag, R&D Systems 1506-D4-050) (UniProt Q9NR61 27-529) (assay: Direct bind ELISA on DLL4; DLL4 domain N-term., HC short, LC short).
T2 construct: extracellular domain; not shown: His tag

Binder	EC50 [nM]
DVD465 (DLL4/VEGF DVD-Ig) (bispecific antibody, human IgG1, HC linker short, LC linker short; also called DVD465H; DVD465L) VH: EVQLVESGGGLVQPGGSLRLSCAASGFTFTDNWISWVRQAPGKGLEWVGYISPNSGFTYYADSVKGRFTISADTSKNTAYLQMNSLRAEDTAVYYCARDNFGGYFDYWGQGTLVTVSSASTKGPEVQLVESGGGLVQPGGSLRLSCAASGFTISDYWIHWVRQAPGKGLEWVAGITPAGGYTYYADSVKGRFTISADTSKNTAYLQMNSLRAEDTAVYYCARFVFFLPYAMDYWGQGTLVTVSS VL: DIQMTQSPSSLSASVGDRVTITCRASQDVSTAVAWYQQKPGKAPKLLIYSASFLYSGVPSRFSGSGSGTDFTLTISSLQPEDFATTYYCQQSYTGTVTFGQGTKVEIKRTVAAPDIQMTQSPSSLSASVGDRVTITCRASQDVSTAVAWYQQKPGKAPKLLIYSASFLYSGVPSRFSGSGSGTDFTLTISSLQPEDFATYYCQQSYTTPPTFGQGTKVEIKR	0.57
DVD443 (DLL4/VEGF DVD-Ig) (bispecific antibody, human IgG1, HC linker short, LC linker short; also called DVD443H; DVD443L) VH: QVQLVQSGAEVKKPGASVKISCKASGYSFTAYYIHWVKQAPGQGLEWIGYISSYNGATNYNQKFKGRVTFTTDTSTSTAYMELRSLRSDDTAVYYCARDYDYDVGMDYWGQGTLVTVSSASTKGPEVQLVESGGGLVQPGGSLRLSCAASGFTISDYWIHWVRQAPGKGLEWVAGITPAGGYTYYADSVKGRFTISADTSKNTAYLQMNSLRAEDTAVYYCARFVFFLPYAMDYWGQGTLVTVSS VL: DIVMTQSPDSLAVSLGERATISCRASESVDNYGISFMKWFQQKPGQPPKLLIYAASNQGSGVPDRFSGSGSGTDFTLTISSLQAEDVAVYYCQQSKEVPWTFGGGTKVEIKRTVAAPDIQMTQSPSSLSASVGDRVTITCRASQDVSTAVAWYQQKPGKAPKLLIYSASFLYSGVPSRFSGSGSGTDFTLTISSLQPEDFATYYCQQSYTTPPTFGQGTKVEIKR	0.2

The binders below were run against T1, DLL4 ECD/His tag (R&D 1506-D4-050) (assay: direct bind ELISA, DLL4 on plate; DLL4 VD N-term.; HC Long, LC Long).

Binder	EC50 [nM]
DVD521 (bispecific antibody, human IgG1, kappa, lambda, L234A L235A, DVD-Ig; outer AB073 (DLL4), inner AB071 (VEGF); HC long, LC long linker; also called DVD521H; DVD521L) heavy: not shown light: QAVVTQESALTTSPGETVTLTCRSSTGAVTTSNYANWVQEKPDHLFTGLIGGTNNRAPGVPARFSGSLIGDKAALTITGAQTEDEAIYFCALWYSNHWVFGGGTKLTVLGQPKAAPSVTLFPPDIQMTQSPSSLSASVGDRVTITCRASQVIRRSLAWYQQKPGKAPKLLIYAASNLASGVPSRFSGSGSGTDFTLTISSLQPEDFATYYCQQSNTSPLTFGQGTKVEIKRTVAAPSVFIFPPSDEQLKSGTASVVCLLNNFYPREAKVQWKVDNALQSGNSQESVTEQDSKDSTYSLSSTLTLSKADYEKHKVYACEVTHQGLSSPVTKSFNRGEC	0.26
DVD451 (bispecific antibody, human IgG1, kappa, L234A L235A, DVD-Ig; outer AB069 (DLL4), inner AB071 (VEGF); HC long, LC long linker; also called DVD451H; DVD451L) heavy: not shown light: DIVMTQSPDSLAVSLGERATISCRASESVDNYGISFMKWFQQKPGQPPKLLIYAASNQGSGVPDRFSGSGSGTDFTLTISSLQAEDVAVYYCQQSKEVPWTFGGGTKVEIKRTVAAPSVFIFPPDIQMTQSPSSLSASVGDRVTITCRASQVIRRSLAWYQQKPGKAPKLLIYAASNLASGVPSRFSGSGSGTDFTLTISSLQPEDFATYYCQQSNTSPLTFGQGTKVEIKRTVAAPSVFIFPPSDEQLKSGTASVVCLLNNFYPREAKVQWKVDNALQSGNSQESVTEQDSKDSTYSLSSTLTLSKADYEKHKVYACEVTHQGLSSPVTKSFNRGEC	0.4
DVD473 (bispecific antibody, human IgG1, kappa, DVD-Ig; outer AB015 (DLL4), inner AB071 (VEGF); HC long, LC long linker; also called DVD473H; DVD473L) heavy: not shown light: DIQMTQSPSSLSASVGDRVTITCRASQDVSTAVAWYQQKPGKAPKLLIYSASFLYSGVPSRFSGSGSGTDFTLTISSLQPEDFATTYYCQQSYTGTVTFGQGTKVEIKRTVAAPSVFIFPPDIQMTQSPSSLSASVGDRVTITCRASQVIRRSLAWYQQKPGKAPKLLIYAASNLASGVPSRFSGSGSGTDFTLTISSLQPEDFATYYCQQSNTSPLTFGQGTKVEIKRTVAAPSVFIFPPSDEQLKSGTASVVCLLNNFYPREAKVQWKVDNALQSGNSQESVTEQDSKDSTYSLSSTLTLSKADYEKHKVYACEVTHQGLSSPVTKSFNRGEC	1.8
DVD497 (bispecific antibody, human IgG1, kappa, DVD-Ig; outer AB072 (DLL4), inner AB071 (VEGF); HC long, LC long linker; also called DVD497H; DVD497L) heavy: not shown light: DIQMTQSSSYLSVSLGGRVTITCKASDHINNWLAWYQQKPGNAPRLLISGATSLETGVPSRFSGSGSGKDYTLSITSLQTEDVATYYCQQYWSIPLTFGAGTKLELKRTVAAPSVFIFPPDIQMTQSPSSLSASVGDRVTITCRASQVIRRSLAWYQQKPGKAPKLLIYAASNLASGVPSRFSGSGSGTDFTLTISSLQPEDFATYYCQQSNTSPLTFGQGTKVEIKRTVAAPSVFIFPPSDEQLKSGTASVVCLLNNFYPREAKVQWKVDNALQSGNSQESVTEQDSKDSTYSLSSTLTLSKADYEKHKVYACEVTHQGLSSPVTKSFNRGEC	0.53

Each binder was assayed against T1, DLL4 ECD/His tag (R&D 1506-D4-050) (assay: direct bind ELISA, DLL4 on plate; DLL4 VD N-term.; HC Long, LC Short).

Binder	EC50 [nM]
DVD527 (bispecific antibody, human IgG1, kappa, DVD-Ig; outer AB073 (DLL4), inner AB071 (VEGF); HC long, LC short linker; also called DVD527H; DVD527L) heavy: not shown light: QAVVTQESALTTSPGETVTLTCRSSTGAVTTSNYANWVQEKPDHLFTGLIGGTNNRAPGVPARFSGSLIGDKAALTITGAQTEDEAIYFCALWYSNHWVFGGGTKLTVLGQPKAAPDIQMTQSPSSLSASVGDRVTITCRASQVIRRSLAWYQQKPGKAPKLLIYAASNLASGVPSRFSGSGSGTDFTLTISSLQPEDFATYYCQQSNTSPLTFGQGTKVEIKRTVAAPSVFIFPPSDEQLKSGTASVVCLLNNFYPREAKVQWKVDNALQSGNSQESVTEQDSKDSTYSLSSTLTLSKADYEKHKVYACEVTHQGLSSPVTKSFNRGEC	0.2
DVD503 (bispecific antibody, human IgG1, kappa, DVD-Ig; outer AB072 (DLL4), inner AB071 (VEGF); HC long, LC short linker; also called DVD503H; DVD503L) heavy: not shown light: DIQMTQSSSYLSVSLGGRVTITCKASDHINNWLAWYQQKPGNAPRLLISGATSLETGVPSRFSGSGSGKDYTLSITSLQTEDVATYYCQQYWSIPLTFGAGTKLELKRTVAAPDIQMTQSPSSLSASVGDRVTITCRASQVIRRSLAWYQQKPGKAPKLLIYAASNLASGVPSRFSGSGSGTDFTLTISSLQPEDFATYYCQQSNTSPLTFGQGTKVEIKRTVAAPSVFIFPPSDEQLKSGTASVVCLLNNFYPREAKVQWKVDNALQSGNSQESVTEQDSKDSTYSLSSTLTLSKADYEKHKVYACEVTHQGLSSPVTKSFNRGEC	0.33
DVD479 (bispecific antibody, human IgG1, kappa, DVD-Ig; outer AB015 (DLL4), inner AB071 (VEGF); HC long, LC short linker; also called DVD479H; DVD479L) heavy: not shown light: DIQMTQSPSSLSASVGDRVTITCRASQDVSTAVAWYQQKPGKAPKLLIYSASFLYSGVPSRFSGSGSGTDFTLTISSLQPEDFATTYYCQQSYTGTVTFGQGTKVEIKRTVAAPDIQMTQSPSSLSASVGDRVTITCRASQVIRRSLAWYQQKPGKAPKLLIYAASNLASGVPSRFSGSGSGTDFTLTISSLQPEDFATYYCQQSNTSPLTFGQGTKVEIKRTVAAPSVFIFPPSDEQLKSGTASVVCLLNNFYPREAKVQWKVDNALQSGNSQESVTEQDSKDSTYSLSSTLTLSKADYEKHKVYACEVTHQGLSSPVTKSFNRGEC	1.69
DVD457 (bispecific antibody, human IgG1, kappa, L234A L235A, DVD-Ig; outer AB069 (DLL4), inner AB071 (VEGF); HC long, LC short linker; also called DVD457H; DVD457L) heavy: not shown light: DIVMTQSPDSLAVSLGERATISCRASESVDNYGISFMKWFQQKPGQPPKLLIYAASNQGSGVPDRFSGSGSGTDFTLTISSLQAEDVAVYYCQQSKEVPWTFGGGTKVEIKRTVAAPDIQMTQSPSSLSASVGDRVTITCRASQVIRRSLAWYQQKPGKAPKLLIYAASNLASGVPSRFSGSGSGTDFTLTISSLQPEDFATYYCQQSNTSPLTFGQGTKVEIKRTVAAPSVFIFPPSDEQLKSGTASVVCLLNNFYPREAKVQWKVDNALQSGNSQESVTEQDSKDSTYSLSSTLTLSKADYEKHKVYACEVTHQGLSSPVTKSFNRGEC	0.13
